Legend:
[1] = as provided by manufacturer (Mimotopes); cited from earlier work
[2] = biological target: T1, equine alcohol dehydrogenase (ADH) (Equus caballus, UniProt P00327); assay: αB crystallin protein pin array with alcohol dehydrogenase; type: binding; conditions: ADH as ligand in the pin array
T1 construct: purchased Sigma-Aldrich, MO 05646
Description: (§1) Synthesis of Pins, binding and detection of peptides binding to ligand proteins. The αB crystallin protein pin array was used to measure the interaction between peptides and chaperone target proteins including bovine βH crystallin, human γD crystallin, equine alcohol dehydrogenase (ADH) and porcine citrate synthase (CS) as described (FIG. 12). Ghosh and Clark, Protein Sci 14: 684-95, 2005.
(§2) Refer to the methods section for detailed protocols. The absorbance corresponding to the blue coloration in each well was measured at λ=450 nm and plotted against the amino acid sequence of the corresponding peptide in that well (FIGS. 13 and 14). Wells containing peptides that have strong interactions with target proteins are dark blue and wells containing peptides that have weak or no interaction with target proteins are light blue or clear.
(§3) The purity of the target proteins used in the pin array assays, bovine βH crystallin, human γD crystallin, equine alcohol dehydrogenase (ADH) and porcine citrate synthase (CS) were determined to be >90% by SDS-PAGE. In addition, primary antibodies for each target protein were specific to that target protein and consequently contaminating proteins that may bind to the peptides will not be detected. Eighty-four sequential and overlapping peptide fragments corresponding to residues 1-175 of human αB crystallin were synthesized employing a simultaneous peptide synthesis strategy developed by Geysen, called Multipin Peptide Synthesis (Mimotopes, San Diego, Calif.). Geysen, Southeast Asian J Trop Med Public Health 21: 523-33, 1990; Chin et al., J Org Chem 62: 538-539, 1997. Peptides were immobilized on derivatized polyethylene pins arranged in a microtiter ELISA plate format. Each peptide was eight amino acids in length and consecutive peptides were offset by two amino acids. All peptides were bound covalently to the surface of the plastic pins. The first peptide was 1MDIAIHHP8 and the last peptide was 168PAVTAAPK175 for human αB crystallin.
(§4) Ghosh and Clark, Protein Sci 14: 684-95, 2005. […] The intensity of the blue color in the wells was measured at 450 nm using an ELISA plate-reader (BioTek, Winooski, Vt.). The intensity of the blue color (plotted on the X-axis) was a measure of the interaction between αB crystallin peptides (plotted on the Y-axis) and target proteins. To measure the effect of temperature on the interactions between interactive peptides and the target proteins, the target proteins were heated in a water-bath at 45° C. for fifteen minutes prior to use. Pin arrays are unable to differentiate between monomers, dimers or oligomers of target proteins that exist in solution. Instead, pin arrays are very sensitive detectors of interactions between individual peptides and the entire population (monomers, dimers or oligomers) of specific target proteins that may exist in solution under specific conditions. Each target protein was assayed two to five times. A single pin array was used for all experiments and no change in interactions was observed after more than thirty repetitions. The last three peptides of the protein pin array, 163REEKPAVT170, 165EKPAVTAA172, 167PAVTAAPK174, correspond to the epitope (163REEKPAVTAAPKK175) recognized by the primary antibody for human αB crystallin. A positive reaction is observed for these three peptides in the absence of human αB crystallin as the ligand due to direct binding of the anti-human αB crystallin antibody to these three peptides. The loss of efficiency for the pin array was measured using this assay. The loss of efficiency for the pin array was determined to be <5% by after more than 30 assays.
The pattern of absorbance at k=450 nm when αB crystallin peptides were assayed with unheated and pre-heated ADH was similar to the absorbance pattern obtained with unheated and pre-heated βH/γD crystallin (FIG. 17). […]

beta amyloid = beta amyloid (Homo sapiens, UniProt P05067); assay: αB crystallin protein pin array, binding of beta amyloid; conditions: immobilized 8-mer peptide; absorption at 450 nm
Description: αB Crystallin peptides that bind the target protein beta-amyloid were identified by screening an αB crystallin protein pin array, which provides a systematic method for evaluating interactions between peptides corresponding to residues 1-175 of human αB crystallin and selected target proteins in a parallel and simultaneous manner.
Peptides were synthesized on derivatized polyethylene pins arranged in a microtiter plate format. Each peptide was 8 amino acids in length and consecutive peptides were offset by 2 amino acids. All peptides were covalently bonded to the surface plastic pins. The first immobilized peptide was 1MDIAIHHP8 and the last peptide was 168PAVTAAPK175 for the human αB crystallin.
After synthesis, the pins were pre-coated at room temperature with 2% Bovine Serum Albumin (BSA), 0.1% Tween-20 and 0.1% Sodium azide in 10 mM phosphate buffered saline pH 7.2 (PBS) for 1 hr, and washed three times for 10 mins each with 10 mM PBS. To screen for binding to the peptides, fixed concentrations of the target protein beta amyloid was dissolved in 10 mM PBS, containing 0.05% Tween-20, added to each well and incubated for 1 hr at room temperature. The pin array was washed three times for 10 mins each with 10 mM PBS, containing 0.05% Tween-20. Monoclonal or polyclonal primary antibodies for the target protein beta amyloid was diluted into PBS buffer, added to each well and incubated for 1 hr at room temperature. Subsequently, the pin array was washed three times for 10 mins each with 10 mM PBS containing 0.05% Tween-20. Anti-rabbit horse-radish peroxidase conjugate secondary antibodies was diluted into PBS buffer, added to each well and incubated for 1 hr at room temperature. The pin array was washed three times for 10 mins each with 10 mM PBS containing 0.05% Tween-20. A chromogenic substrate of horse-radish peroxidase 3,3′,5,5′-Tetramethylbenzidine (TMB) (Pharmingen, San Diego, Calif.) which is colorless was added, and the reaction was carried out for 45 min.
The reaction was stopped by adding 6N sulfuric acid, which changes the color from blue to yellow. The absorption at 450 nm was measured by an ELISA reader (BioTek, Winooski, Vt.).
The pin array was regenerated by sonication in a water bath (VWR Aquasonic, West Chester, Pa.) with 100 mM PBS, containing 1% Sodium dodecyl sulfate (SDS) and 0.1% 2-Mercaptoethanol@60° C. for 10 mins. Next, the pin array was rinsed three times in deionized water, preheated to 60° C. for 30 secs each time, and shaken in water preheated at 60° C. for 30 min. The pin array was then washed with methanol at 60° C. for 15 secs and air-dried and stored @−20° C. for future use. Each target protein was assayed 2-5 times against the human αB crystallin protein pin array peptides to verify the reproducibility of the results. Peptides numbered 5, 7, 8, 9, 13, 19, 22, 23, 24, 27, 35, 38, 45, 51, 52, 56, 57, 61, 66, 71, 72, and 79 in Table 2 reproducibly tested positive in the protein pin assay.

bovine βH crystallin = assay: αB crystallin protein pin array with βH crystallin; type: binding; conditions: unheated βH crystallin, 23° C.; similar maxima pre-heated 45° C.
Description: as §1, §2, §3, §4
Protein pin arrays enabled the identification of interactive sequences necessary for the chaperone activity of human αB crystallin. Interactions between immobilized 8-mer human αB crystallin peptides and unheated and pre-heated βH crystallin, a natural protein constitute of lens cells, were measured as absorbances at λ=450 nm at 23° C. […]

[3] = biological target: T2, porcine citrate synthase (CS) (Sus scrofa, UniProt P00889); assay: αB crystallin protein pin array with citrate synthase; type: binding; conditions: CS as target protein in the pin array
T2 construct: purchased Roche Diagnostics, IN 103 381
T2 sequence (P00889 28-464): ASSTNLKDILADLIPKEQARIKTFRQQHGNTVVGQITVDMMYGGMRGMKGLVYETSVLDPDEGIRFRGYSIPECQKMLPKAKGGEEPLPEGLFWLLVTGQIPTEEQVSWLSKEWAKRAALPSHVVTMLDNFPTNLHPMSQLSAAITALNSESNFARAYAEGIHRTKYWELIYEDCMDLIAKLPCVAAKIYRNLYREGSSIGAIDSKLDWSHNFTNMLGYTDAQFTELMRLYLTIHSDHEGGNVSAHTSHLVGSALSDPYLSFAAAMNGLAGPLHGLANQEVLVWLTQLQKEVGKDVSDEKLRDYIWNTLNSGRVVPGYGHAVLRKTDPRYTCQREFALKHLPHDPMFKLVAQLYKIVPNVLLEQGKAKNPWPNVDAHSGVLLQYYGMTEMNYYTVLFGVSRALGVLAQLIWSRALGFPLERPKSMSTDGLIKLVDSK
Description: as §1, §2, §3, §4
The pattern of absorbance at λ=450 nm when αB crystallin peptides were assayed with unheated and pre-heated CS was similar to the absorbance pattern obtained with unheated and pre-heated βH/γD crystallin and ADH (FIG. 18). […]

human γD crystallin = biological target: T3, human γD crystallin (Homo sapiens, UniProt P07320); assay: αB crystallin protein pin array with γD crystallin; type: binding; conditions: unheated γD crystallin; similar maxima pre-heated 45° C.
T3 construct: made in house
T3 sequence (P07320 1-174): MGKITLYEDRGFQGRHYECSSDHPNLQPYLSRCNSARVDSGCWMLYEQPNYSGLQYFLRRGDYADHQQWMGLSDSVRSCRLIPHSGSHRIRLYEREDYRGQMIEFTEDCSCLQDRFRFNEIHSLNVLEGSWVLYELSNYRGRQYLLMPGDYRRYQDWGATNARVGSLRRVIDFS
Description: as §1, §2, §3, §4
When βH crystallin was replaced with γD crystallin, a native protein constituent of lens cytoplasm from the same gene family as the β crystallins, as the ligand in the pin array, twelve interactive sequences were identified (FIG. 14: striped bars). […]

T1 sequence (P00327 whole entry): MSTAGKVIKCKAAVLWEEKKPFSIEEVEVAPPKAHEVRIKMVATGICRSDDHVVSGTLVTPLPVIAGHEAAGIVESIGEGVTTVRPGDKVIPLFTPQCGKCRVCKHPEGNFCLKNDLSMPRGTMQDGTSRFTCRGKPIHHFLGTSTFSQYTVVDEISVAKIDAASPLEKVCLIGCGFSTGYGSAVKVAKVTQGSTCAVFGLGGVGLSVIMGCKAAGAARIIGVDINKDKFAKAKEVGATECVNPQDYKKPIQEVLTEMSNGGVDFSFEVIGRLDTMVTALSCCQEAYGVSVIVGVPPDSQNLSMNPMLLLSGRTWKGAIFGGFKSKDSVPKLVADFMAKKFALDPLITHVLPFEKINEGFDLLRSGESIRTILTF

Sequence | Hydrophobicity [1] | absorbance at 450 nm, interaction with ADH [2] | binding of beta amyloid in the protein pin assay (beta amyloid) | absorbance at 450 nm, interaction with βH crystallin (bovine βH crystallin) | absorbance at 450 nm, interaction with CS [3] | absorbance at 450 nm, interaction with γD crystallin (human γD crystallin)
FFGEHLLE [Peptide 14] | 0.73 | Maximum absorbances |  |  |  | 
FISREFHR [Peptide 57] | 0.35 |  | positive | Maximum absorbances | absorbance maxima | 
FPFHSPSR [Peptide 8] | 0.51 |  | positive |  | absorbance maxima | 
FYLRPPSF [Peptide 24] | 0.83 |  | positive | Maximum absorbances | absorbance maxima | maximum absorbances
GVLTVNGP [Peptide 71] | 0.57 | Maximum absorbances | positive | Maximum absorbances |  | maximum absorbances
LFPTSTSL [Peptide 19] | 0.79 | Maximum absorbances | positive |  |  | 
LRAPSWFD [Peptide 28] | 0.62 |  |  |  | absorbance maxima | 
LRPPSFLR [Peptide 25] | 0.57 | Maximum absorbances |  |  |  | 
LTVNGPRK [Peptide 72] | 0.16 |  | positive |  | absorbance maxima | 
PFFPFHSP [Peptide 7] | 0.95 | Maximum absorbances | positive |  |  | maximum absorbances
RLEKDRFS [Peptide 35] | −0.12 | Maximum absorbances | positive | Maximum absorbances |  | 
RTIPITRE [Peptide 79] | 0.27 | Maximum absorbances | positive | Maximum absorbances | absorbance maxima | 
SFLRAPSW [Peptide 27] | 0.71 |  | positive |  |  | maximum absorbances
SLSPFYLR [Peptide 22] | 0.72 | Maximum absorbances | positive |  | absorbance maxima | maximum absorbances
SREFHRKY [Peptide 58] | −0.1 | Maximum absorbances |  |  |  | 

Source: patent publication US20070185028A1, “Compositions and methods for treatment of protein misfolding and protein aggregation diseases” (priority 2004, published 2007)
